Laboratory results from IntAct's records for PubMed 11698381.

B1: pH-response regulator protein palA/RIM20 (Saccharomyces cerevisiae), Q12033 (parent)
chain: MSELLAIPLKRTLEVDFATELSKLIDTTSFQTASFFQSDILKVVDARNNAIAPDISIDGLSALKEYYVILLQLEKKFPNNQIEFTWFQTLSQKSRGTSQYSLQWEKLTIIYNIGCMYSLLALNSNNDAAESLKTSCLYFQNAAGCFKHVLDHQKNLETIPVVDDATLNALTSLMLAQAQECFWFKAVQDKHKDSLIAKLSQQIVDFYCEAINDAQRGKLIRSDWINHLKAKKAYFSAVTYYRIALSFNEKKQFGNVVKALQMGLQFINESTLSSQAKFKTVVESSLKEAQRDNEFIYLQEVPSELPSIKPALMVKPSSSATLLPSIKKDETLFKDLIPIEVMEYCTAYNERQDEYVEQRVTNPLASLNKLLKESLTTFQIPQGLTKVSEAELSHYQASLNNLLINNKNVQVQLDNIEQILNEEAFTDNQLRLKHGTLNWTLPESSTTNTAYYEKLKKLRGYLDEGSAIDKQTNELFQSIDKNLIGSEIRLPESNDPLTNKIKMIIQERNDYIDRTRRKSSEYRILPKIITSYKKNGTVDFEPIFIGHLKYFDEDLRYVNSTKEENIKLIEEVNLSKKNNPGRSGIEPKKMVRIDPRELYIEDLRYSFKLLDEVKENLSAGTAFYENLITSTSNLYNEVQEYDTARRAEKARLDKSLTFEDQ

Variants of: B1
Conditions: with pacc_yeast RIM101, P33400
pacc_yeast RIM101, P33400, sequence (P33400 whole entry): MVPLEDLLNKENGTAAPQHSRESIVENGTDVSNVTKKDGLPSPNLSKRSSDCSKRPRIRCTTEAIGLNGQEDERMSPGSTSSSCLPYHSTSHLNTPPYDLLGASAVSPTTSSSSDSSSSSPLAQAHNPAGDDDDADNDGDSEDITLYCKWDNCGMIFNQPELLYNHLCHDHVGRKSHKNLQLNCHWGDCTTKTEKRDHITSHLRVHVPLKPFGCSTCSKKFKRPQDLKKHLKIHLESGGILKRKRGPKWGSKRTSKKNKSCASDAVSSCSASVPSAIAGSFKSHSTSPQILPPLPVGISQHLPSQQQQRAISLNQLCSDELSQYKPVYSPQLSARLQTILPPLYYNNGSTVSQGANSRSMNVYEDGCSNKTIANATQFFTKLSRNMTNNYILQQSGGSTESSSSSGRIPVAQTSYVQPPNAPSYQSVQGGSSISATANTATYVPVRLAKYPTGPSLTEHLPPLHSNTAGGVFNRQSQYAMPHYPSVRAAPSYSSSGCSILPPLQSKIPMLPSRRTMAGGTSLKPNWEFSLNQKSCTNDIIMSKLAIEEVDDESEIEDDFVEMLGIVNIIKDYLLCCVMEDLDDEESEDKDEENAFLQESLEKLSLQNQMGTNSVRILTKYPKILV

| Variant | effect of a mutation on the interaction |
| --- | --- |
| Q177A;Q179A;E180A | disrupting interaction |
| F623A;Y624A | disrupting interaction |
